Legend:
mouse CNTN4-10xHis = molecular target: T1, mouse CNTN4-10xHis (mouse, UniProt Q69Z26 19-1000); assay: ELISA, plate coated with CNTN4-10xHis, anti-human Fc-HRP
T1 sequence: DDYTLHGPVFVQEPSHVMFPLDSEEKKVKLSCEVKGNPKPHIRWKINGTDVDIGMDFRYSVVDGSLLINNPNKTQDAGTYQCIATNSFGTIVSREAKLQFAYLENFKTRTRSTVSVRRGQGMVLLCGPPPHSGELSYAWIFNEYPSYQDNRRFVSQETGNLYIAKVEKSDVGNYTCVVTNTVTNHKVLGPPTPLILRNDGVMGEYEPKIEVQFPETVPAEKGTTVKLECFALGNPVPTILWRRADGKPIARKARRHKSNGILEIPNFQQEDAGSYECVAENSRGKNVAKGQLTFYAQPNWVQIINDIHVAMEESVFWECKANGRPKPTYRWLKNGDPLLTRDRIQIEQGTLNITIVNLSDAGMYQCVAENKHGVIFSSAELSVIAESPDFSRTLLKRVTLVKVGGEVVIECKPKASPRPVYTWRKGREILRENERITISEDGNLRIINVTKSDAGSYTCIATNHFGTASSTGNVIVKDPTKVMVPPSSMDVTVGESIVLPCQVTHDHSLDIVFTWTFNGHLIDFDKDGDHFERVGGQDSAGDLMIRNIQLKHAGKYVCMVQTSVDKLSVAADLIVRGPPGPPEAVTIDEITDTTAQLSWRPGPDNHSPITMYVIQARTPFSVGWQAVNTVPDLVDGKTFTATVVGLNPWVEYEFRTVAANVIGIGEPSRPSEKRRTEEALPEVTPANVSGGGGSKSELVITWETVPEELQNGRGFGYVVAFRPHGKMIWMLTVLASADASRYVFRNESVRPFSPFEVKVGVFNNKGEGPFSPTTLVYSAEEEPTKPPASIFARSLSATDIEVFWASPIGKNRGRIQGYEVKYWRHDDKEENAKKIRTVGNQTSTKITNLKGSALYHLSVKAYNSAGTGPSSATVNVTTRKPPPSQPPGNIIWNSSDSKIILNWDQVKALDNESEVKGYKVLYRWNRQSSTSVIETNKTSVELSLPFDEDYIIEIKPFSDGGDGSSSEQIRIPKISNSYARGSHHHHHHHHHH
Description: An ELISA test was performed on A-01 prepared in Example 2.1. An ELISA plate was coated with 200 ng of antigens (human CNTN4-10xHis or mouse CNTN4-10xHis). For antibody binding, A-01 was serially diluted from a maximum of 1 μM to 0.0001 nM, thereby binding to the antigen. Anti-human Fc-HRP was used as a secondary antibody for antibody detection. Color was developed using ABTS, which is a color developing reagent, and the absorbance at 405 nm was measured.

Human CNTN-4 protein = molecular target: T2, Human CNTN-4 protein (human, UniProt Q8IWV2 19-1000, limits assumed); assay: SPR, antibody captured by anti-human IgG Fc on CM5 chip, CNTN4 as analyte
T2 construct: soluble antigen run over the captured antibody; also called human CNTN4 (SPR analyte)
T2 sequence (looked up): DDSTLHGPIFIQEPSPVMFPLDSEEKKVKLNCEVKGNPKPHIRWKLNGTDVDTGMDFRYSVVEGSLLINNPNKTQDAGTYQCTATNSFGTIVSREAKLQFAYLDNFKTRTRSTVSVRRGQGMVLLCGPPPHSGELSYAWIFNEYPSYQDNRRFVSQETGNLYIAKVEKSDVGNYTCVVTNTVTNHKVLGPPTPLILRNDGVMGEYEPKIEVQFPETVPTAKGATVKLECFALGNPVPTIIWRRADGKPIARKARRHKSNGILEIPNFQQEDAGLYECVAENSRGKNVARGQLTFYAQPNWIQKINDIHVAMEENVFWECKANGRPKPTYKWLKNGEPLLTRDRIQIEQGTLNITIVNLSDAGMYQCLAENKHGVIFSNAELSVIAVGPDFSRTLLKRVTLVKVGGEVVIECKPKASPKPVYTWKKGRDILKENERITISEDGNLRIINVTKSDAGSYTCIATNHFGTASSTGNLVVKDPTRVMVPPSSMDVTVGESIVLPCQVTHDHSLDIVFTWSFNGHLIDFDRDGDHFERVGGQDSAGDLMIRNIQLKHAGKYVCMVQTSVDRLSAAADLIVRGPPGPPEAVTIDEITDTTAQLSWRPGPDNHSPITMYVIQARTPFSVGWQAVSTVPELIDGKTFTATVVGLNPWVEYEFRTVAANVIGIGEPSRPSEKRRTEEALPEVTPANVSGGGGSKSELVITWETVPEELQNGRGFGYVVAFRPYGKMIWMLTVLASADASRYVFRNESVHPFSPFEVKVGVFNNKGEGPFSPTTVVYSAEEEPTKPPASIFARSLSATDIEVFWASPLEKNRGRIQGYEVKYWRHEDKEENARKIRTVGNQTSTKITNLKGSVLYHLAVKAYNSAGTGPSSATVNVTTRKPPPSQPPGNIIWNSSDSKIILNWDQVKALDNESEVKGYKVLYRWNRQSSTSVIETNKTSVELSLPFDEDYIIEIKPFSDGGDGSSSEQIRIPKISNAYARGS
Description: Specifically, in order to bind anti-human IgG Fc (capture antibody) using amine coupling, CM5 chip was mounted, running buffer was allowed to flow, the chip was activated, and then capture antibody was attached thereto. Dextrin to which capture antibody was not attached was deactivated using ethanolamine, and then regeneration was performed using 3M magnesium chloride to clear analyte except capture antibody. The A-01 prepared at a concentration of 0.05 μg/mL was allowed to flow for 30 seconds at a rate of 10 μL/min for binding. Thereafter, human CNTN4 (400 nM to 0.78 nM) prepared by sequential dilution as an antigen was allowed to flow at a rate of 30 μL/min for 3 minutes to be bound, and dissociation was performed for 5 minutes. Then, in order to clear all analytes attached to the capture antibody, a regeneration solution (3M magnesium chloride) was allowed to flow at a rate of 20 μL/min for 30 seconds, and regeneration was performed. For each concentration of antigen, binding of A-01, binding of antigen, dissociation, and regeneration were repeated in order.

EC50 (mouse CNTN4-10xHis): 0.011 nM | Kd (Human CNTN-4 protein): 33.6 nM
B1: anti-CNTN4 129 chimeric IgG4-S228P (antibody, V domains shown)
VH: AVTLDESEGGLQTPGGALSLVCKASGFTFSSFNMFWVRQAPGKGLEYVAEISGGGGSTWYAPAVKGRATISRDNGQSTVRLQLNNLRAEDTGTYYCAKSADTWSYGAATIDAWGHGTEVIVSS
VL: ALTQPSSVSANLGETVKITCSGSSGSYGWYQQKSPGSAPVTLIYDNTNRPSDIPSRFSGSGSGSTGTLTITGVRAEDEAVYYCGGYDGSTDVFGAGTTLTVL
notes: chicken-human chimeric IgG4-S228P made from S129, kappa light chain constant region (Kappa select); also called A-01; LAHA
